What follows are molecules tested on Sites 1-5 (SEQ ID NO:131, 134, 133, 140, 132) (assay: Inosine glycosylase homolog testing, C-terminal fusions to ABE8e). Conditions: C-terminal fusion to ABE8e, Sites 1-5, FIG. 16.
Format: cell-based

Molecule | adenine to C or T editing activity of adenine diversifiers
CgMPG: truncated MPG of Cricetulus griseus, SEQ ID NO:86, fused to C-terminus of ABE8e (protein, listed as Cricetulus griseus) EDHPARLGPEFFDQPAVTLARAFLGQVLVRRLADGTELRGRIVETEAYLGPEDEAAHSRGGRQTPRNRGMFMKPGTLYVYIIYGMYFCLNVSSQGAGACVLLRALEPLEGLDTMRQLRSTLRKSTVSRTLKDRELCSGPSKLCQALAIDKSFDQRDLTQDEAVWLEHGPLATGSPAVVAAARIGIGHAGEWTQKPLRFYVQGSPWVSVVDRVAEQMCQPQQTA | displayed the highest activity
ClMPG: truncated MPG of Canis lupus, SEQ ID NO:87, fused to C-terminus of ABE8e (protein, listed as Canis lupus) KSHSAQLGSDFFDQPAVALARAFLGQVLVRRLDDGTELRGRIVETEAYLGPEDEAAHSRGGRQTPRNRGMFMKPGTLYVYIIYGMYFCLNVSSQGDGACVLLRALEPLGGLETMRQLRSTLRKGTTGRALKDRELCSGPSKLCQALAIDKSFDQRDLAKDRAVWLERSPPGPSEPAVVAAARVGIGHAGEWAQKPLRFYLRGSPWVSVVDRAAEQNAQA | displayed the highest activity
CjMPG: truncated MPG of Callithrix jacchus, SEQ ID NO:88, fused to C-terminus of ABE8e (protein, listed as Callithrix jacchus) KGYLTRLGSEFFDQPAVTLAQAFLGQVLVRRLPNGTELRGRIVETEAYLGPEDEAAHSRGGRQTPRNRGMFMKPGTLYVYIIYGMYFCMNISSQGDGACVLLRALEPLEGLETMRQLRSTLRKGTASRVLKDRELCSGPSKLCQALAIDKSFDQRDLAQDEAIWLEHGPLEPSGPTVVAAARVGIGYAGEWSRKPLRFYVRGSPWVSVVDRVAEQDAQA | displayed the highest activity

The molecules below were run on endogenous loci (assay: Transversion mutations from adenine: ABE7.10 with inosine glycosylases (fusion or in trans), HTS in HEK293T cells). Conditions: fusion constructs and co-transfected constructs with ABE7.10, FIGS. 7A-7B and 8A-8B.
Format: cell-based
Excerpt: The experiment was designed to generate transversion mutations from adenines by promoting inosines to undergo the same cellular DNA repair pathways that generate transversion mutations during translesion-bypass polymerization in cytosine base editing. While not wishing to be bound to any particular theory, it was hypothesized that the key step was to facilitate the glycosylation of inosines generated during adenine base editing. It was hypothesized that once glycosylated, the resulting abasic site can be a substrate for translesion-bypass repair and that this would lead to transversion mutations. Exogenous inosine glycosylases were provided along with ABE to promote inosine glycosylation.
Several inosine glycosylases were screened in HEK293T cells and it was determined whether they were capable of acting on inosines generated by ABE. If inosine is converted into an abasic site, and subsequently repaired through translesion-bypass polymerization, transversion mutations can be generated from adenines.
Five different glycosylases from various species were selected for testing. The following genes were codon-optimized and cloned into a mammalian expression vector, either as unfused gene, or as a C-terminal fusion to ABE7.10 (species source in parenthesis); hMPG (Homo sapiens) having an amino acid sequence of SEQ ID NO:84, mMPG (Mus musculus) having an amino acid sequence of SEQ ID NO:83, rMPG (Rattus norvegicus) having an amino acid sequence of SEQ ID NO:80, SpThp1 (Schizosaccharomyces pombe) having an amino acid sequence of SEQ ID NO:79, MaHDG (Methanosarcina acetivorans) having an amino acid sequence of SEQ ID NO:81, and MbHDG (Methanosarcina barkeri) having an amino acid sequence of SEQ ID NO:82. […] The HEK293T cells were transfected with a plasmid encoding gRNA targeting endogenous loci and either the fusion plasmid or a mixture of plasmids expressing ABE7.10 and the above inosine glycosylases. After 3 days, high-throughput sequencing was used to determine the editing result of targeted adenines. Mock transfection (using pUC19) was used to set baseline editing. All conditions that used ABE7.10 generated 10-20% guanine transition, as expected.

Molecule | generation of C and T bases from adenine over background
hMPG: methylpurine glycosylase from Homo sapiens, SEQ ID NO:84, UniProtKB P29372 | significant amount of C and T bases over background
SpThp1: uracil DNA glycosylase with activity towards inosine from Schizosaccharomyces pombe, SEQ ID NO:79 (protein, Schizosaccharomyces pombe) MNDIETRDTGTKNDNSSEFNLSVKSHKRKRSFDDENLELEESREETSGGILKKAKTQSFSESLERFRFAHAGSNNEYRKTDVVKNSDTDNGLLKSAVETITLENGLRNRRVNVTKKSTLKASVKKSTLKKKNEVDPALLQGVPDYICENPYAIIVGLNPGITSSLKGHAFASPSNRFWKMLNKSKLLEGNAEFTYLNDKDLPAHGLGITNLCARPSSSGADLRKEEMQDGARILYEKVKRYRPQVGLFISGKGIWEEMYKMLTGKKLPKTFVFGWQPEKFGDANVFVGISSSGRAAGYSDEKKQNLWNLFAEEVNRHREIVKHAV | significant amount of C and T bases over background
mMPG: methylpurine glycosylase from Mus musculus, SEQ ID NO:83, UniProtKB Q04841 (protein, listed as Mus musculus) MPARGGSARPGRGALKPVSVTLLPDTEQPPFLGRARRPGNARAGSLVTGYHEVGQMPAPLSRKIGQKKQRLADSEQQQTPKERLLSTPGLRRSIYFSSPEDHSGRLGPEFFDQPAVTLARAFLGQVLVRRLADGTELRGRIVETEAYLGPEDEAAHSRGGRQTPRNRGMFMKPGTLYVYLIYGMYFCLNVSSQGAGACVLLRALEPLEGLETMRQLRNSLRKSTVGRSLKDRELCSGPSKLCQALAIDKSFDQRDLAQDDAVWLEHGPLESSSPAVVVAAARIGIGHAGEWTQKPLRFYVQGSPWVSVVDRVAEQMDQPQQTACSEGLLIVQK | significant amount of C and T bases over background
